The target of data set [1] is T1, SpoVG-6-His (Listeria monocytogenes 10403S) (UniProt Q8YAD5).
T1 sequence: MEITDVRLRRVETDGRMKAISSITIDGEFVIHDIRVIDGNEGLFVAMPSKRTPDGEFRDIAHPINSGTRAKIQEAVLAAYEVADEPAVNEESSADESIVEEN
Briefly: EMSA. The following applies: 2x buffer: 40 mM Tris-HCl pH 8.0, 2 mM MgCl2, 20% glycerol, 300 mM NaCl, 5 mM DTT, plus 5 ug yeast tRNA, 1 ug BSA, 100 ng poly(dI-dC) …. In general terms: Mobility shift assays separate free from complexed probe on a gel.

For data set [2], the target named is T1, SpoVG-6-His (Listeria monocytogenes 10403S). Briefly: competition. Conditions: EMSA, 2x buffer: 40 mM Tris-HCl pH 8.0, 2 mM MgCl2, 20% glycerol, 300 mM NaCl, 5 mM DTT; plus 5 ug yeast tRNA, 1 ug BSA, 100 ng poly(dI-dC) ….
Data set [3] concerns the target T2, SpoVG-6-His (Listeria monocytogenes 10403S, UniProt Q8YAD5 1-102).
T2 sequence: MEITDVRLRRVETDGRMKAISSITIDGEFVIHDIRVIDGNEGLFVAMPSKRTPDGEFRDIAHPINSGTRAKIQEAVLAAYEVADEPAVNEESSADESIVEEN
In words: EMSA; EMSA, 2x buffer: 40 mM Tris-HCl pH 8.0, 2 mM MgCl2, 20% glycerol, 300 mM NaCl, 5 mM DTT; plus 5 ug yeast tRNA, 1 ug BSA, 100 ng poly(dI-dC); 25-30 ul, room temperature 30 min, 5% native PAGE. Conditions: protein: recombinant; tags: C-terminal 6xHis; label: 32P.

In data set [4] the target is T2, SpoVG-6-His. Briefly: EMSA; no significant binding to dsDNA; EMSA, 2x buffer: 40 mM Tris-HCl pH 8.0, 2 mM MgCl2, 20% glycerol, 300 mM NaCl, 5 mM DTT; plus 5 ug yeast tRNA, 1 ug BSA, 100 ng poly(dI-dC); 25-30 ul, room temperature 30 min, 5% native PAGE. The following applies: protein: recombinant; tags: C-terminal 6xHis; label: 32P; blunt.

Usually Kd stands for the concentration at which binding is half-saturated.

In the case of “GGGAAAAGAAACCCUAAUGUAUUCGAUAUAGUUCCUGAUAUUUUUGAACCGAACAAUUUUUUAUACCUAGGGAGCUUGGAGUUCCGGCGCGGCGCACAUGCCUUCACACGAGGAAGUGCAAACCGUUAGACAGAGCACCCACCUGCUUUAAUUGAGAGCGGGUUCAAAGGAAGGGAAUCCUAAACGGUACGAUUGGGGUUUCUUUUUUG [6S RNA]”, the binding entry in data set [1] is listed as “no binding”. “GGGCAGUGGAAUUAAAGGCAUCUAAGCAAAUCAUGAUGAACGAGAGAACCGUUUGAAGAUCAUCCGAAUGACGUAUAUGUUCUACCUUGAUCUGUUCAGCCGCAAUGCUUUUGCGAGUGACA [Rli109]”: the binding result in data set [2] is given as “binds”. Besides, the dissociation constant (Kd) in data set [1] was found to be 129 nM. In the case of “GGGUGGAGAGCUUUCAUUUUUCCCAAGAGAAAGCAAAUAAUGUUAGAGCAAUAAUUCUAGUAUCCGAAUUAGUCUUAUCCCUUGGCUCGCUUUAAUAUUAUUUCUCCCUAAUACUCCCUUAACCGCAUCCCCCUGGUGCGGUUAUUUUUUUG [Rli32]”, in data set [1], the equilibrium dissociation constant (Kd) stood at 273 nM. For the molecule “GGUAUCCCAUAGAGAUUGUCAGGGGAAAUAAGCUAAUUGAAAAUAAAUUACUUCCCCCAUAGAAAUAUUCUUAAUUGCUUAUUUCAAAUAAACACUCCUUUAAGAUAGUUGUAGCACAGAAUUUCCCAGAUUCUGUGCUAUAAUUA [Rli31 mutant A]”, in data set [1], the binding entry is reported as “binds”. Take “GGUAUCCCAUAGAGAUUGUCAUUUGAAAUAAGCUAAUUGAAAAUAAAUUACUUCCCCCAUAGAAAUAUUCUUAAUUGCUUAUUUCAAAUAAACACUCCUUUAAGAUAGUUGUAGCACAGAAUUUCCCAGAUUCUGUGCUAUAAUUA [Rli31]”: in data set [1], the Kd stood at 273 nM. “GGUAUCCCAUAGAGAUUGUCAUUUGAAAUAAGCUAAUUGAAAAUAAAUUACUUUUUCCAUAGAAAUAUUCUUAAUUGCUUAUUUCAAAUAAACACUCCUUUAAGAUAGUUGUAGCACAGAAUUUCCCAGAUUCUGUGCUAUAAUUA [Rli31 mutant E]”: the binding signal entry in data set [1] is listed as “binds more weakly”. “GGUGAGAUGACAUGUUUCUUUUGAAUGCGCGAACUAGUAUAGCUAAAUUUUUGUAUAUUGUCCGUGCAAUUUUUUCCGUUAUUGCAGUUACAUUGGCGAAGUCUGCCCAAAAAACUGUAUAACUAGAAAAAAUGAGAGAAGCAUGGAGUCACGCAAUCGAUUUGUAUAGUGCUAAAUUAGUAUUAUACUUAUAAUUGGCGUCGGGCGCUUGUCUGACGCUUUUUUGUUGUCUGAAAAAA [RliI]”: the binding result in data set [1] is “binds more weakly”.

Take “GGUUGUCGUGCUAGACGGGGAGGUAGCGGCGCCCUGUAACCCGCAAUCCGCUCUAGCGGGGUUGAAUUCCUCAUUUGAGGCAUCGUAAUUGUUUGGUCUGCCCUUGACAAGUGGUGUUGAAGGUUGGGUCUUGCGCAAUGGGAACCUGUGAACCAUGUCAGGUCCGGAAGGAAGCAGCAUUAAGCAGUGCUUCUCAUGUGCCGCGAGGUCGCCUGGCCCGAGCUAACUAUCAGGGUAACGCAGAUGAUUGCAUGUCGAUGUGAGGUGCGCGACACUAA [SRP RNA]”: in data set [1], the binding entry is “no binding”. On to Rli31, for which the dissociation constant Kd in data set [1] stood at 273 nM. On the same count and under the same terms, to Rli32 belongs 273 nM; to Rli109, 129 nM. As to GTCGCGCAACAAAGTAATAATGCAGATGGACAGACTAATGAAAGACCAG (ssDNA) [pgdA ORF], the binding result with SpoVG-6-His [3] was “binds”.

B1: cap41 dsDNA (dsDNA)
DNA 1: GAGTATAATTATTTTTAATTTACATATAAATAAAAAGGCGAAAATAATGCGGTTTAAAAGTAATTAAT
DNA 2: ATTAATTACTTTTAAACCGCATTATTTTCGCCTTTTTATTTATATGTAAATTAAAAATAATTATACTC
As to B1, the binding result with SpoVG-6-His [4] is given as “no binding”.

These data come from article PMC4959528, “SpoVG Is a Conserved RNA-Binding Protein That Regulates Listeria monocytogenes Lysozyme Resistance, Virulence, and Swarming Motility”.
